Measurements taken from PMC5021521, “Coordinated recruitment of Spir actin nucleators and myosin V motors to Rab11 vesicle membranes” (eLife, 2016).
Entries after “also recorded” stand apart in the source; their conditions may differ. Ends that are not written are not given here. * marks the point of attachment. 5FAM = O=C1OC2(c3ccc(O)cc3Oc3cc(O)ccc32)c2ccc(C(=O)*)cc21; Ahx = NCCCCCC(=O)O

Assays:
[1] = system: GFP-MyoVb-GTD; assay: Co-immunoprecipitation from HEK293 cells; format: binding, Homo sapiens; conditions: anti-Myc co-IP, HEK293, immunoblot
Experimental: (§1) HEK293 cells were transfected with expression vectors encoding Myc-tagged Spir proteins and GFP-tagged myosin Va and myosin Vb fragments. 48 hr post transfection, cells were lysed in lysis buffer (25 mM Tris-HCl pH 7.4, 150 mM NaCl, 5 mM MgCl2, 10% (v/v) glycerol, 0.1% (v/v) Nonidet P-40, 1 mM Phenylmethylsulfonylfluorid (PMSF; Sigma-Aldrich), protease inhibitor cocktail (complete mini, EDTA-free; Roche, Penzberg, Germany)) and centrifuged at 20,000 x g, 4°C, 20 min to remove insoluble debris. The clarified supernatant was incubated with 4 µg anti-c-Myc antibody (9E10, mouse monoclonal; Santa Cruz Biotechnology; RRID: AB_627268) for 1 hr on ice. Subsequently, 40 µl Protein G-Agarose beads (1:1 suspension; Roche) were added and incubated for 2 hr at 4°C on a rotating wheel. Beads were washed with pulldown buffer (25 mM Tris-HCl pH 7.4, 150 mM NaCl, 5 mM MgCl2, 10% (v/v) glycerol, 0.1% (v/v) Nonidet P-40). Bound proteins were eluted with 1x Laemmli buffer and denatured for 10 min at 95°C, then analyzed by immunoblotting.

[2] = system: GFP-MyoVa-GTD; assay: Co-immunoprecipitation from HEK293 cells; format: binding, Mus musculus; conditions: anti-Myc co-IP, HEK293, immunoblot, N = 2
Experimental: as §1

[3] = system: GST-Rab11a-Q70L; assay: GST-pulldown from HEK293 lysates; format: binding; conditions: N = 2
Experimental: HEK293 cells were co-transfected with expression vectors encoding Myc-Spir-2-FL, mStrawberry-FMN2-FH2-FSI, eGFP-MyoVa-D-FL and eGFP-MyoVa-D-Q1753R, respectively. 24 hr post transfection, cells were lysed in lysis buffer (25 mM Tris-HCl pH 7.4, 150 mM NaCl, 5 mM MgCl2, 10% (v/v) glycerol, 0.1% (v/v) Nonidet P-40, 1 mM PMSF, protease inhibitor cocktail) and centrifuged at 20,000 x g, 4°C, 20 min to remove insoluble debris. For GST-pulldown assays 65 µg GST-Rab11a-Q70L protein (25 µg GST control) was coupled to GSH-Sepharose 4B beads (1:1 suspension) for 1 hr, 4°C on a rotating wheel. Beads were washed twice with pulldown buffer (25 mM Tris-HCl pH 7.4, 150 mM NaCl, 5 mM MgCl2, 10% (v/v) glycerol, 0.1% (v/v) Nonidet P-40) and subsequently incubated with the cell lysates for 2 hr at 4°C on a rotating wheel. Beads were washed four times with pulldown buffer and bound proteins were eluted with 1x Laemmli buffer and denatured at 95°C for 10 min, then were analyzed by immunoblotting.

[4] = system: Spir-1; assay: GST-pulldown from mouse brain lysates; format: binding; conditions: 50 µg GST-fusion protein; immunoblot anti-Spir-1; N = 3
Experimental: Wild-type C57BL/6 (Jackson Laboratory, Bar Harbor, ME, USA) mice were killed by cervical dislocation. The brain was isolated immediately, washed in cold PBS and lysed in lysis buffer (25 mM Tris-HCl pH 7.4, 150 mM NaCl, 5 mM MgCl2, 10% (v/v) glycerol, 0.1% (v/v) Nonidet P-40, 0.1 M NaF, 1 mM Na3VO4, 1 mM PMSF, protease inhibitor cocktail) using a TissueRuptor (Qiagen). Following incubation on ice for 45 min, the lysate was centrifuged at 20,000 x g, 4°C until the supernatant was clear. Brain lysates were incubated with GSH-Sepharose 4B beads, loaded with 50 µg GST-fusion proteins as indicated, for 2.5 hr at 4°C on a rotating wheel. Beads were washed five times with pulldown buffer and bound proteins were eluted by 1x Laemmli buffer and denatured at 95°C for 10 min. Pulled proteins were analyzed by immunoblotting.

[5] = target: GST-MyoVa-GTD (mouse); assay: pull-down + other fluorescence titration; quantitative GST-pulldown: increasing GST-MyoVa/b-GTD on beads, 100 nM His6-mCherry-Spir-2-linker, 1x PBS with 50 mM NaCl; mCherry fluorescence left in the supernatant at 20°C; single-site fit
[6] = target: T1, GST-MyoVb-GTD (human, UniProt Q9ULV0 1467-1848); assay: as above; conditions: both partners purified
T1 construct: myosin Vb globular tail domain, human, aa 1467-1848; also called GST-hs-MyoVb-GTD; pGex-4T1-NTEV-hs-MyoVb-GTD; source: E. coli Rosetta or Rosetta (DE3) pLysS, purified (GSH-Sepharose 4B, Superdex 200)
T1 sequence (looked up): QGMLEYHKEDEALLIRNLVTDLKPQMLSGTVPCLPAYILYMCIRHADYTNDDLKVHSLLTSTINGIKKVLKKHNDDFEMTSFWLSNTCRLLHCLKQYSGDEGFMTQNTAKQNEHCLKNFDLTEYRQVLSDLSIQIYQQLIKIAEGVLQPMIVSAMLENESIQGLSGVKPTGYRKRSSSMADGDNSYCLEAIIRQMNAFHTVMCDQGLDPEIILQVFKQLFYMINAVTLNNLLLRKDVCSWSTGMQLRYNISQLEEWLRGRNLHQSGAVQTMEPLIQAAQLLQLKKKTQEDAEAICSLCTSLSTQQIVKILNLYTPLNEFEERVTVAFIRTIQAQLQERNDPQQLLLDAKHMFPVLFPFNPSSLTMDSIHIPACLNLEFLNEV

[7] = system: Rab11a-Q70L; assay: GST-pulldown with purified proteins, tripartite complex; format: binding, Homo sapiens; conditions: N = 3
Experimental: For GST-pulldown assays, 50 µg of GST-fusion protein was coupled to GSH-Sepharose 4B beads (1:1 suspension) for 1 hr at 4°C on a rotating wheel. Beads were washed twice with pulldown buffer and subsequently incubated with 20 µg His6-mCherry-fusion peptides for 2 hr, 4°C on a rotating wheel. In order to identify the tripartite Spir-2:MyoVa:Rab11a complex, 65 µg GST-Spir-2-GTBM-SB-FYVE was coupled to beads. Subsequently, beads were incubated with 40 µg MyoVa-GTD and 35 µg Rab11a-Q70L simultaneously for 2 hr. Beads were washed four times with pulldown buffer and bound proteins were eluted by 1x Laemmli buffer and denatured at 95°C for 10 min. Pulled proteins were analyzed by immunoblotting.

[8] = target: T2, MyoVc-GTD (human, aa 1350-1742) (human, UniProt Q9NQX4 1350-1742); assay: MST
T2 chain: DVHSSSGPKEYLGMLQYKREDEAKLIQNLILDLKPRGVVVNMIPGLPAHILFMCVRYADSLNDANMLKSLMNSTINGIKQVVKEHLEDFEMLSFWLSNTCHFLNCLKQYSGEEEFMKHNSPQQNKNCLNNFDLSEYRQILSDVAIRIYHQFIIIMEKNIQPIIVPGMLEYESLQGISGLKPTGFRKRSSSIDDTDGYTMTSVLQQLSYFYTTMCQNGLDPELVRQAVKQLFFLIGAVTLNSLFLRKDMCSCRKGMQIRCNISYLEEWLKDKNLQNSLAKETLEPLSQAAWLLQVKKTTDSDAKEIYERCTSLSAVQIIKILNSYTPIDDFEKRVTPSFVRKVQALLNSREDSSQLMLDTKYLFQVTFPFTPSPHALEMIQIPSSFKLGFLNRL

[9] = target: T3, MyoVc-GTD (human, aa 1350-1742) (human, UniProt Q9NQX4 1350-1742); assay: MST; 500 nM fluorescein-Spir-2 peptide, MyoVc-GTD 97 uM to 2.96 nM; 21.5°C; 50 mM Tris pH 8.0, 250 mM NaCl, 2 mM MgCl2, 2 mM TCEP, 5% glycerol; conditions: both partners purified
T3 construct: myosin Vc globular tail domain, human, residues 1350-1742; also called hs-MyoVc-GTD; source: E. coli BL21(DE3) or BL21-CodonPlus-RILP, purified (HisTrap, rTEV, Superdex 200); not shown: His6, N-terminal, cleaved
T3 sequence (looked up): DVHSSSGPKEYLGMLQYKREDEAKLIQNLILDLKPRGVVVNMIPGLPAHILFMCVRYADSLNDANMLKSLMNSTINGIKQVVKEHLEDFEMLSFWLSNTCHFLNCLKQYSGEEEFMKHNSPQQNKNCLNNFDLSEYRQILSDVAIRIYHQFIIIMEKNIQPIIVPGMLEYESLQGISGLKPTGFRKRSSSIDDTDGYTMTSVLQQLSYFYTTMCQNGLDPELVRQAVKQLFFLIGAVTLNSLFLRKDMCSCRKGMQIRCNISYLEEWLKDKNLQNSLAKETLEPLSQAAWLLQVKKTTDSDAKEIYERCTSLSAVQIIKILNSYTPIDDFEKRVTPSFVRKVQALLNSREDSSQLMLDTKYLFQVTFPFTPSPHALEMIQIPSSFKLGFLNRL

[10] = target: T4, MyoVb-GTD (human, aa 1456-1848) (human, UniProt Q9ULV0 1456-1848); assay: fluorescence polarisation; fluorescence anisotropy; 1 uM fluorescein-Spir-2-401-427 titrated with MyoVa-GTD or MyoVb-GTD (50 nM-5 uM); 25°C; 100 mM Tris-HCl pH 8.0, 150 mM NaCl, 2 mM MgCl2, 2 mM TCEP, 5% glycerol; conditions: both partners purified
T4 construct: myosin Vb globular tail domain, human, residues 1456-1848; Produced as in Pylypenko et al., 2013; also called hs-MyoVb-GTD; source: E. coli BL21(DE3) or BL21-CodonPlus-RILP, purified (HisTrap, rTEV, Superdex G200); not shown: His6, N-terminal, cleaved
T4 sequence (looked up): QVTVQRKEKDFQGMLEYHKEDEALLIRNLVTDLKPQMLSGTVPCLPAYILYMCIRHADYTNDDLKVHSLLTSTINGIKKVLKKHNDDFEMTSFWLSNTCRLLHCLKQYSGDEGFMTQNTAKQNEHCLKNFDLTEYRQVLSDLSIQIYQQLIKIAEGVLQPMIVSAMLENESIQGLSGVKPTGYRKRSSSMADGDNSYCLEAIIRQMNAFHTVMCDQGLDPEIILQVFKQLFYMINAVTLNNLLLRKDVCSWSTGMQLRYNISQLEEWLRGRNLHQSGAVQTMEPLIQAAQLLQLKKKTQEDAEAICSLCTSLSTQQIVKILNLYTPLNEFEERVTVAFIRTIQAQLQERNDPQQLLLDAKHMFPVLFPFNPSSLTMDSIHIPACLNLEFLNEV

Spir-2: Myc-hs-Spir2 aa 2 - 714, full-length (QRPRPRVLLKAPTLAEMEEMNTSEEEE)
co-precipitation / interaction with MyoVb-GTD in words [1]: did interact with the GFP-MyoVb-GTD
co-precipitation / interaction with MyoVb-GTD in words ([1]; listed as Myc-Spir-2): co-precipitation
co-precipitation / interaction with MyoVa-GTD in words [2]: interacts
co-precipitation / interaction with MyoVa-GTD in words ([2]; listed as Myc-Spir-2): co-precipitation
pulldown by GST-Rab11a-Q70L in words ([3]; HEK293 lysates over-expressing Myc-Spir-2, Straw-FMN2-FH2-FSI and GFP-MyoVa-FL): able to pull down Myc-Spir-2
pulldown by GST-Rab11a-Q70L in words, with Q1753R mutant MyoVa ([3]; HEK293 lysates with GFP-MyoVa-Q1753R in place of GFP-MyoVa-FL): Only faint

GST-FMN2-eFSI: GST-mm-FMN2-eFSI aa 1523 - 1578, positive control ({GST}-EFSSDFKDAWKKENKLILQERVKEAEEVCRQKKGKSLYKVKPRHDSGIKAKISMKT) [reference compound]
pulldown of endogenous Spir-1 in words [4]: able to pull endogenous Spir-1 from mouse brain lysates

B1: GST-MyoVb-GTD: GST-hs-MyoVb-GTD aa 1467 - 1848 (protein)
chain: QGMLEYHKEDEALLIRNLVTDLKPQMLSGTVPCLPAYILYMCIRHADYTNDDLKVHSLLTSTINGIKKVLKKHNDDFEMTSFWLSNTCRLLHCLKQYSGDEGFMTQNTAKQNEHCLKNFDLTEYRQVLSDLSIQIYQQLIKIAEGVLQPMIVSAMLENESIQGLSGVKPTGYRKRSSSMADGDNSYCLEAIIRQMNAFHTVMCDQGLDPEIILQVFKQLFYMINAVTLNNLLLRKDVCSWSTGMQLRYNISQLEEWLRGRNLHQSGAVQTMEPLIQAAQLLQLKKKTQEDAEAICSLCTSLSTQQIVKILNLYTPLNEFEERVTVAFIRTIQAQLQERNDPQQLLLDAKHMFPVLFPFNPSSLTMDSIHIPACLNLEFLNEV
modifications: left off: GST, end not stated, kept
pulldown of endogenous Spir-1 in words [4]: able to pull endogenous Spir-1 from mouse brain lysates

B2: His6-mCherry-Spir-2-linker (domain or fragment, human, UniProt Q8WWL2 361-519, looked up)
chain: GEGWAARGFGSLPCILNACSGDAKSTSCINLSVTDAGGSAQRPRPRVLLKAPTLAEMEEMNTSEEEESPCGEVTLKRDRSFSEHDLAQLRSEVASGLQSATHPPGGTEPPRPRAGSAHVWRPGSRDQGTCPASVSDPSHPLLSNRGSSGDRPEASMTPD
notes: Spir-2 central linker region, human, aa 361-519; also called His-mCherry-Spir2-linker; His6-mCherry-hs-Spir2-linker; source: E. coli (Rosetta or Rosetta (DE3) pLysS; BL21(DE3)), purified (Ni-NTA, Superdex 200); not shown: His6, N-terminal, kept; mCherry, N-terminal, kept
Kd [5]: 728 nM
Kd [6]: ~377 nM

B3: GST-Spir-2-GTBM-SB-FYVE: GST-hs-Spir2-GTBM-SB-FYVE aa 361 - 714 (protein)
chain: GEGWAARGFGSLPCILNACSGDAKSTSCINLSVTDAGGSAQRPRPRVLLKAPTLAEMEEMNTSEEEESPCGEVTLKRDRSFSEHDLAQLRSEVASGLQSATHPPGGTEPPRPRAGSAHVWRPGSRDQGTCPASVSDPSHPLLSNRGSSGDRPEASMTPDAKHLWLEFSHPVESLALTVEEVMDVRRVLVKAEMEKFLQNKELFSSLKKGKICCCCRAKFPLFSWPPSCLFCKRAVCTSCSIKMKMPSKKFGHIPVYTLGFESPQRVSAAKTAPIQRRDIFQSLQGPQWQSVEEAFPHIYSHGCVLKDVCSECTSFVADVVRSSRKSVDVLNTTPRRSRQTQSLYIPNTRTLDFK
modifications: left off: GST, end not stated, kept
pulldown of Rab11a-Q70L in words ([7]; in the presence of MyoVa-GTD): allows GST-Spir-2-GTBM-SB-FYVE to pull Rab11a-Q70L
pulldown of Rab11a-Q70L in words ([7]; without MyoVa-GTD): does not interact with Rab11a-Q70L; also recorded: does not pull down Rab11a-Q70L

B4: Fluorescein-Spir-2-GTBM peptide (peptide)
peptide: {5FAM-Ahx}-QRPRPRVLLKAPTLAEMEEMNTSEEEE
notes: also called Fluorescein-Spir2 peptide; fluorescein labeled Spir-2-401-427 peptide; source: synthetic peptide, bought: GenScript
Kd [8]: 2880 nM
binding result [9]: binds
binding result [10]: binds
